Data published in patent US20110053865A1.
Read-outs that look alike come from different tables or passages of the source.

Columns and labels:
[1] = target: recombinant human IL-23 (p19/p40) (human) (UniProt Q9NPF7); assay: cell-based or functional assay
[2] = target: cynomolgus IL-23 (cynomolgus); assay: cell-based or functional assay
[3] = target: native human IL-23 (supernatant of SAC-stimulated THP-1 cells) (human) (UniProt Q9NPF7); assay: cell-based or functional assay
[4] = target: recombinant human IL-23 (p19/p40) (human) (UniProt Q9NPF7); assay: inhibition ELISA, hIL-23/hIL-23R-Fc
[5] = target: cynomolgus IL-23 (cynomolgus); assay: cell-based or functional assay; remark: listed apart in the source
[6] = target: recombinant human IL-23 (p19/p40) (human) (UniProt Q9NPF7); assay: cell-based or functional assay; remark: listed apart in the source

Sequence of recombinant human IL-23 (p19/p40) (human) (Q9NPF7 20-189 limits assumed, chain 1 of 2): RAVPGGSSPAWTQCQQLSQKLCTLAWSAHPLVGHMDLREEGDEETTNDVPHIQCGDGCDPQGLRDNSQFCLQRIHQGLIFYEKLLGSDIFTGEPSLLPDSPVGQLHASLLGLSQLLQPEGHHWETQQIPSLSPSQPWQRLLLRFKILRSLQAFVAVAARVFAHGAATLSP
Sequence of recombinant human IL-23 (p19/p40) (human) (P29460 23-328 limits assumed, chain 2 of 2, further chain): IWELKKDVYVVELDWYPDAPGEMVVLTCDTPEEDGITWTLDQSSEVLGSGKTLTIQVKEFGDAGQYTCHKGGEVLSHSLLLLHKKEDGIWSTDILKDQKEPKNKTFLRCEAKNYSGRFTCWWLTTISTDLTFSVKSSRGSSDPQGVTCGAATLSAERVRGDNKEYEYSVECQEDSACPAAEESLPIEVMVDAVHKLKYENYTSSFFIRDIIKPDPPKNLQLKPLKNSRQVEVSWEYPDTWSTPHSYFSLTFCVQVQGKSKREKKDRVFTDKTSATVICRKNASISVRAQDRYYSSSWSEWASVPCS
Sequence of native human IL-23 (supernatant of SAC-stimulated THP-1 cells) (human) (Q9NPF7 20-189, chain 1 of 2): as the sequence (Q9NPF7 20-189 limits assumed, chain 1 of 2) above
Sequence of native human IL-23 (supernatant of SAC-stimulated THP-1 cells) (human) (P29460 23-328, chain 2 of 2, further chain): as the sequence (P29460 23-328 limits assumed, chain 2 of 2, further chain) above

IC50, splenocyte assay, 19 pM hIL-23 [1] [pM] | IC50, splenocyte assay, 3.8 pM cIL-23 [2] [pM] | Binder | other results
39 |  | P23IL-121A2-9GS-ALB1-9GS-119G7 (bispecific antibody, part only; not given: anti-albumin Nanobody, part only) chain, part: EVQLVESGGGLVQAGGSLRLSCAASGSIFNFNYMGWFRQAPGKEREFVAAIRWSGSSTYYADSVKGRFTISRDDAKNTVALQMNSLKPEDTAIYYCALRKGIPYSTSDRVIKGVNDYDYWGQGTQVTVSSGGGGSGGGSGGGGSGGGSEVQLVESGGGLVQAGGSLTLSCAVSGLTFNNYAMGWFRQVPGKEREFVAAISRSGLRTFYSDSVKGRFTISRDSAKSTVYVQMNNLKPEDTAVYFCAADRRTYYSEGPSLTDTLRYDYWGQGTQVTVSS | 
4.47 | 8.59 | P23IL20B11-9GS-ALB1-9GS-37D5 (bispecific antibody, part only; not given: anti-albumin Nanobody, part only) chain, part: EVQLVESGGGLVQAGGSLRLSCAVSGDTFSVYGMGWFRQAPGMEREFVAGISWNAGITAYTDTLKGRFTISRDRAKNTMYLQMNSLQPEDTAVYYCAADVTRHYIATRSKVDASMYDYWGQGTQVTVSSGGGGSGGGSGGGGSGGGSEVQLVESGGGLVQPGGSLRLSCAASGFTLDYLAIGWFRQAPGKEREGVSCVSSSGQYTYYADSVKGRFTISRDNAESTVYLQMNSLKPEDTAVYYCATDPECYRVRGYYNGEYDYWGQGTQVTVSS | 
29.8 | 419 | P23IL37D5-9GS-ALB1 (bispecific antibody, part only; not given: anti-albumin Nanobody, part only) chain, part: EVQLVESGGGLVQPGGSLRLSCAASGFTLDYLAIGWFRQAPGKEREGVSCVSSSGQYTYYADSVKGRFTISRDNAESTVYLQMNSLKPEDTAVYYCATDPECYRVRGYYNGEYDYWGQGTQVTVSSGGGGSGGGS | IC50, splenocyte assay, 19 pM native hIL-23 (Expt 3) [3]: 60 pM; IC50 [4]: 37 pM
4 | 3 | P23IL119A3-9GS-ALB1-9GS-81G2 (bispecific antibody, part only; not given: anti-albumin Nanobody, part only) chain, part: EVQLVESGGGLVQAGGSLRLSCAASGRIFSLPASGNIFNLLTIAWHRQAPGMQRELVATINSGSRTNYADSVKGRFTISRDNAQKTVYLQMNNLKPEDTAVYYCQTSGSGSPNFWGQGTQVTVSSGGGGSGGGSGGGGSGGGSEVQLVESGGGLVQPGGSLRLSCIASGLPFSTKSMGWFRQAPGKEREFVARISPGGTSRYYGDFVKGRFAISRDNAKNTTWLQMNSLKAEDTAVYYCASGERSTYIGSNYYRTNEYDYWGTGTQVTVSS | 
5.77 | 5.75 | P23IL37D5-15GS-ALB1-15GS-20B11 (bispecific antibody, part only; not given: anti-albumin Nanobody and linkers, not shown: small tags and cut ends) chain, part: EVQLVESGGGLVQPGGSLRLSCAASGFTLDYLAIGWFRQAPGKEREGVSCVSSSGQYTYYADSVKGRFTISRDNAESTVYLQMNSLKPEDTAVYYCATDPECYRVRGYYNGEYDYWGQGTQVTVSSEVQLVESGGGLVQAGGSLRLSCAVSGDTFSVYGMGWFRQAPGMEREFVAGISWNAGITAYTDTLKGRFTISRDRAKNTMYLQMNSLQPEDTAVYYCAADVTRHYIATRSKVDASMYDYWGQGTQVTVSS | 
 |  | P23IL37D5-9GS-ALB1-9GS-20B11 (bispecific antibody, part only; not given: anti-albumin Nanobody, part only) chain, part: EVQLVESGGGLVQPGGSLRLSCAASGFTLDYLAIGWFRQAPGKEREGVSCVSSSGQYTYYADSVKGRFTISRDNAESTVYLQMNSLKPEDTAVYYCATDPECYRVRGYYNGEYDYWGQGTQVTVSSGGGGSGGGSGGGGSGGGSEVQLVESGGGLVQAGGSLRLSCAVSGDTFSVYGMGWFRQAPGMEREFVAGISWNAGITAYTDTLKGRFTISRDRAKNTMYLQMNSLQPEDTAVYYCAADVTRHYIATRSKVDASMYDYWGQGTQVTVSS | IC50, splenocyte assay, 19 pM native hIL-23 (Expt 3) [3]: 12 pM; IC50, BAF3 proliferation assay, 76 pM hIL-23 [1]: 19.5 pM
2.5 | 3.3 | P23IL119A3-9GS-ALB1-9GS-81A12 (bispecific antibody, part only; not given: anti-albumin Nanobody, part only) chain, part: EVQLVESGGGLVQAGGSLRLSCAASGRIFSLPASGNIFNLLTIAWHRQAPGMQRELVATINSGSRTNYADSVKGRFTISRDNAQKTVYLQMNNLKPEDTAVYYCQTSGSGSPNFWGQGTQVTVSSGGGGSGGGSGGGGSGGGSEVQLVESGGGLVQAGGSLRLSCAASGRTLSSYAMGWFRQAPGKEREFVARISQGGTAIYYADSVKGRFTISRDNAKNTVYLQMNSLKPEDTAVYYCAKDPSPYYRGSAYLLSGSYDSWGQGTQVTVSS | 
8 |  | P23IL-121A2-9GS-ALB1-9GS-81G2 (bispecific antibody, part only; not given: anti-albumin Nanobody, part only) chain, part: EVQLVESGGGLVQAGGSLRLSCAASGSIFNFNYMGWFRQAPGKEREFVAAIRWSGSSTYYADSVKGRFTISRDDAKNTVALQMNSLKPEDTAIYYCALRKGIPYSTSDRVIKGVNDYDYWGQGTQVTVSSGGGGSGGGSGGGGSGGGSEVQLVESGGGLVQPGGSLRLSCIASGLPFSTKSMGWFRQAPGKEREFVARISPGGTSRYYGDFVKGRFAISRDNAKNTTWLQMNSLKAEDTAVYYCASGERSTYIGSNYYRTNEYDYWGTGTQVTVSS | 
4.6 | 6.7 | P23IL119A3V16-9GS-ALB8-9GS-81A12V4 (bispecific antibody, part only; not given: anti-albumin Nanobody, part only) chain, part: EVQLLESGGGLVQPGGSLRLSCAASGRIFSLPASGNIFNLLTIAWYRQAPGKGRELVATINSGSRTYYADSVKGRFTISRDNSKKTLYLQMNSLRPEDTAVYYCQTSGSGSPNFWGQGTLVTVSSGGGGSGGGSGGGGSGGGSEVQLLESGGGLVQPGGSLRLSCAASGRTLSSYAMGWFRQAPGKGREFVSRISQGGTAIYYADSVKGRFTISRDNSKNTLYLQMNSLRPEDTAVYYCAKDPSPYYRGSAYLLSGSYDSWGQGTLVTVSS | IC50, BA/F3 proliferation assay, 76 pM hIL-23 [1]: 49 pM; IC50 [4]: 23 pM; IC50, splenocyte assay, 3.8 pM cIL-23 [5]: 5.4 pM; IC50, splenocyte assay, 19 pM hIL-23 [6]: 3.6 pM
